The values below come from publication PMC6821171.

The data set has as its target TF-LYAR-FL (FLAG) (human) (UniProt Q9NX58). Kind of data set: EMSA. The settings on record: EMSA: 10 mM Tris-HCl pH 7.4, 50 mM KCl, 1 mM DTT, 2.5 % (further components not shown in material), 20 µl, 30 min, room temperature.

Consider “GGTATATCTTTCGCTCCGAGTCGGCATTTTGGGCCGCCGGGTTATTGCTGACACGCTGTCCTCTGGCGACCTGTCGTC (double strand) [H0 rDNA promoter probe (H0-BT)]”, for which the binding entry is “no binding”.
